Experimental findings from the RNAGym collection of RNA variant scans (doi:10.7554/elife.90254) are described below.

First the molecules themselves.
B1: LINE1-full (parent)
chain: UACGUAGGUGGUUUUCCCCUGAUAGUGCUAAGGGGGCCUGGAAGUUUGGACUGGGCAGAGCUCAACACAGCGUGGCAAAGUGGCUGUGGCUAGACUGCCUCUCUGGAUUCCUCGUCACUCAGCAGGGCAUCUCUGAGAGAAAUGCC

The variants in the series derive from B1. Briefly: self-cleavage, relative activity (ratio to wild type); higher = more cleavage; in vitro, sequencing; the parent is a self-cleaving ribozyme.
UACGUAGGUGGUUUUCCCCUGAUAGUGCCAAGGGGGCCUGGAAGUUUGGACUGGGCAGAGCUCAACACAGCGUGGCAAAGUGGCUGUGGCUAGACUGCCUCUCUGGAUUCCUCGUCACUCAGCAGGGCAUCUCUGAGAGAAUUGCC [U29C A142U]: the self-cleavage came out at 0.86.

Regarding UACGUAGGUGGUUUUCCCCUGAUAGUGCCAAGGGGGCCUGGAAGUUUGGACUGGGCAGAGCUCAACACAGCGUGGCAAAGUGGCUGUGGCUAGACUGCCUCUCUGGAUUCCUCGUCACUCAGCAGGGCAUCUCUGAGAGAACUGCC [U29C A142C], the self-cleavage came to 1.06.

In the case of UACGUAGGUGGUUUUCCCCUGAUAGUGCCAAGGGGGCCUGGAAGUUUGGACUGGGCAGAGCUCAACACAGCGUGGCAAAGUGGCUGUGGCUAGACUGCCUCUCUGGAUUCCUCGUCACUCAGCAGGGCAUCUCUGAGAGAAGUGCC [U29C A142G], the self-cleavage stood at 1.38.

For UACGUAGGUGGUUUUCCCCUGAUAGUGCCAAGGGGGCCUGGAAGUUUGGACUGGGCAGAGCUCAACACAGCGUGGCAAAGUGGCUGUGGCUAGACUGCCUCUCUGGAUUCUUCGUCACUCAGCAGGGCAUCUCUGAGAGAAAUGCC [U29C C111U], the self-cleavage came out at 1.13.

As to UACGUAGGUGGUUUUCCCCUGAUAGUGCCAAGGGGGCCUGGAAGUUUGGACUGGGCUGAGCUCAACACAGCGUGGCAAAGUGGCUGUGGCUAGACUGCCUCUCUGGAUUCCUCGUCACUCAGCAGGGCAUCUCUGAGAGAAAUGCC [U29C A57U], the self-cleavage was 0.33.

Regarding UACGUAGGUGGUUUUCCCCUGAUAGUGCCAAGGGGGCCUGGAAGUUUGGACUGGGCGGAGCUCAACACAGCGUGGCAAAGUGGCUGUGGCUAGACUGCCUCUCUGGAUUCCUCGUCACUCAGCAGGGCAUCUCUGAGAGAAAUGCC [U29C A57G], the self-cleavage worked out at 0.98.

UACGUAGGUGGUUUUCCCCUGAUAGUGCCAAGGGGGCCUGGAAGUUUGGACUGGGCAGAGCUCAACACAGCGUGGCAAAGUGGCUGUGGCUAGACUGCCUGUCUGGAUUCCUCGUCACUCAGCAGGGCAUCUCUGAGAGAAAUGCC [U29C C101G]: the self-cleavage was found to be 0.89.

With UACGUAGGUGGUUUUCCCCUGAUAGUGCCAAGGGGGCCUGGAAGUUUGGACUGGGCAGAGCUCAACACAGCGUGGCAAAGUGGCUGUGGCUAGACUGCCUCUCUGGAUUCCUCGUCUCUCAGCAGGGCAUCUCUGAGAGAAAUGCC [U29C A117U], the self-cleavage turned out to be 1.51.

With UACGUAGGUGGUUUUCCCCUGAUAGUGCCAAGGGGGCCUGGAAGUUUGGACUGGGCAGAGCUCAACACGGCGUGGCAAAGUGGCUGUGGCUAGACUGCCUCUCUGGAUUCCUCGUCACUCAGCAGGGCAUCUCUGAGAGAAAUGCC [U29C A69G], the self-cleavage was 0.53.

Take UACGUAGGUGGUUUUCCCCUGAUAGUGCCAUGGGGGCCUGGAAGUUUGGACUGGGCAGAGCUCAACACAGCGUGGCAAAGUGGCUGUGGCUAGACUGCCUCUCUGGAUUCCUCGUCACUCAGCAGGGCAUCUCUGAGAGAAAUGCC [U29C A31U]: the self-cleavage is 1.

In the case of UACGUAGGUGGUUUUCCCCUGAUAGUGCCAAGGGGGCCUGGAAGUUUGGACUGGGCAGAGCUCAACACAGCGUGGCAAAGUGGCUGUGGCUAGACUGCCUCUCUGGAUUCCUUGUCACUCAGCAGGGCAUCUCUGAGAGAAAUGCC [U29C C113U], the self-cleavage is 1.44.

Regarding UACGUAGGUGGUUUUCCCCUGAUAGUGCCAAGGGGGCCUGGAAGUUUGGACUGGGCAGAGCUCAUCACAGCGUGGCAAAGUGGCUGUGGCUAGACUGCCUCUCUGGAUUCCUCGUCACUCAGCAGGGCAUCUCUGAGAGAAAUGCC [U29C A65U], the self-cleavage amounted to 0.42.

As to UACGUAGGUGGUUUUCCCCUGAUAGUGCCAAGGGGGCCUGGAAGUUUGGACUGGGCAGAGCUCAACACAGCGUGGCAAAGUGGCUGUGGCUAGACUGCCUCUCUGGAUUCCUCGUCACUCAGCAGGGCAUCUCUGAGAGAGAUGCC [U29C A141G], the self-cleavage amounted to 1.27.

For the variant UACGUAGGUGGUUUUCCCCUGAUAGUGCCAAGGGGGCCUGGAAGUUUGGACUGGGCAGAGCUCAACACAGCGUAGCAAAGUGGCUGUGGCUAGACUGCCUCUCUGGAUUCCUCGUCACUCAGCAGGGCAUCUCUGAGAGAAAUGCC [U29C G74A], the self-cleavage was 1.11.

Regarding UACGUAGGUGGUUUUCCCCUGAUAGUGCCAAGGGGGCCUGGAAGUUUGGGCUGGGCAGAGCUCAACACAGCGUGGCAAAGUGGCUGUGGCUAGACUGCCUCUCUGGAUUCCUCGUCACUCAGCAGGGCAUCUCUGAGAGAAAUGCC [U29C A50G], the self-cleavage is 0.82.

With UACGUAGGUGGUUUUCCCCUGAUAGUGCCAAGGGGGCCUGGAAGUUUGGACUGGGCAGAGAUCAACACAGCGUGGCAAAGUGGCUGUGGCUAGACUGCCUCUCUGGAUUCCUCGUCACUCAGCAGGGCAUCUCUGAGAGAAAUGCC [U29C C61A], the self-cleavage stood at 0.03.

Consider UACGUAGGUGGUUUUCCCCUGAUAGUGCCAAGGGGGCCUGGAAGUUUGGACUGGGCAGAGCUCAACAUAGCGUGGCAAAGUGGCUGUGGCUAGACUGCCUCUCUGGAUUCCUCGUCACUCAGCAGGGCAUCUCUGAGAGAAAUGCC [U29C C68U], for which the self-cleavage turned out to be 0.4.

On to UACGUAGGUGGUUUUCCCCUGAUAGUGCCAAGGGGGCCUGGAAGUUUGGACUGGGCAGAGCUCAACACAGCGUGGCAAAGUGGCUGUGGCUAGACUGCCUCUCUGGAUUCCUCGUCACUCAGCAGGGCAUCUCUGGGAGAAAUGCC [U29C A136G], for which the self-cleavage turned out to be 0.92.

Regarding UACGUAGGUGGUUUUCCCCUGAUAGUGCCAAGGGGGCCUGGAAGUUUGGACUGGGCAGAGCUCAACACAGAGUGGCAAAGUGGCUGUGGCUAGACUGCCUCUCUGGAUUCCUCGUCACUCAGCAGGGCAUCUCUGAGAGAAAUGCC [U29C C71A], the self-cleavage was determined as 0.32.

For UACGUAGGUGGUUUUCCCCUGAUAGUGCCAAGGGGGCCUGGAAGUUUGGACUGGGCAGAGCUCUACACAGCGUGGCAAAGUGGCUGUGGCUAGACUGCCUCUCUGGAUUCCUCGUCACUCAGCAGGGCAUCUCUGAGAGAAAUGCC [U29C A64U], the self-cleavage is 0.54.

As for UACGUAGGUGGUUUUCCCCUGAUAGUGCCAAGGGGGCCUGGAAGUUUGGACUGGGCAGAGCUCAACACAGCGUGGCAAAGUGGCUGUGGCUAGACUGCCUCUCUGGAUUCCUCGUCACUCAGCAGGGCAUCUCUGAGAGAAAUGCU [U29C C146U], the self-cleavage was found to be 1.02.

Consider UACGUAGGUGGUUUUCCCCUGAUAGUGCCAAGGGGGCCUGGAAGUUUGGACUGGGCAGAGCUCAACACAGCGUGGCAUAGUGGCUGUGGCUAGACUGCCUCUCUGGAUUCCUCGUCACUCAGCAGGGCAUCUCUGAGAGAAAUGCC [U29C A78U], for which the self-cleavage was determined as 2.53.

As to UACGUAGGUGGUUUUCCCCUGAUAGUGCCAAGGGGGCCUGGAAGUUUGGACUGGGCAGAGCUCAACACAGCGUGGCAAAGUGGCUGUGGCUAGACUGCCUCUCUGGAUUCCUCGUCACUCGGCAGGGCAUCUCUGAGAGAAAUGCC [U29C A121G], the self-cleavage was 1.43.

Take UACGUAGGUGGUUUUCCCCUGAUAGUGCCAAAGGGGCCUGGAAGUUUGGACUGGGCAGAGCUCAACACAGCGUGGCAAAGUGGCUGUGGCUAGACUGCCUCUCUGGAUUCCUCGUCACUCAGCAGGGCAUCUCUGAGAGAAAUGCC [U29C G32A]: the self-cleavage came to 1.08.

As to UACGUAGGUGGUUUUCCCCUGAUAGUGCCAAGGGGGCCUGGAAGUUUGGACUGGGUAGAGCUCAACACAGCGUGGCAAAGUGGCUGUGGCUAGACUGCCUCUCUGGAUUCCUCGUCACUCAGCAGGGCAUCUCUGAGAGAAAUGCC [U29C C56U], the self-cleavage was 0.23.

Take UACGUAGGUGGUUUUCCCCUGAUAGUGCCAAGGGGGCCUGGAAGUUUGGACUGGGCAGAGCUCAACACAGCGUGGCAAGGUGGCUGUGGCUAGACUGCCUCUCUGGAUUCCUCGUCACUCAGCAGGGCAUCUCUGAGAGAAAUGCC [U29C A79G]: the self-cleavage worked out at 1.16.

Take UACGUAGGUGGUUUUCCCCUGAUAGUGCCAAGGGGGCCUGGAAGUUUGGACUGGGCAGAGCUCAACACAGCGUGGCAAUGUGGCUGUGGCUAGACUGCCUCUCUGGAUUCCUCGUCACUCAGCAGGGCAUCUCUGAGAGAAAUGCC [U29C A79U]: the self-cleavage stood at 2.16.

Regarding UACGUAGGUGGUUUUCCCCUGAUAGUGCCAAGGGGGCCUGGAAGUUUGGACUGGGCAGAGCUCAACACAGCGUGGCAAAGUGGCUGUGGCUAGACUGCCUCUCUGGAUUCCUCGUCACUCAGCAGGGCAUUUCUGAGAGAAAUGCC [U29C C131U], the self-cleavage was determined as 0.93.

With UACGUAGGUGGUUUUCCCCUGAUAGUGCCAAGGGGGCCUGGAAGUUUGGACUGGGCAGAGCUCAACACAGCGUGGCAAAGUGGCUGUGGCUAGACUGUCUCUCUGGAUUCCUCGUCACUCAGCAGGGCAUCUCUGAGAGAAAUGCC [U29C C98U], the self-cleavage was determined as 0.42.

With UACGUAGGUGGUUUUCCCCUGAUAGUGCCAAGGAGGCCUGGAAGUUUGGACUGGGCAGAGCUCAACACAGCGUGGCAAAGUGGCUGUGGCUAGACUGCCUCUCUGGAUUCCUCGUCACUCAGCAGGGCAUCUCUGAGAGAAAUGCC [U29C G34A], the self-cleavage was found to be 0.73.

For UACGUAGGUGGUUUUCCCCUGAUAGUGCCAAGGGGGCCUGGAAGUUUGGACUGGGCAGAGCUCAACACAGCGUGGCAAAGUGGCUGUGGCUUGACUGCCUCUCUGGAUUCCUCGUCACUCAGCAGGGCAUCUCUGAGAGAAAUGCC [U29C A92U], the self-cleavage came to 0.81.

Take UACGUAGGUGGUUUUCCCCUGAUAGUGCCAAGGGGGCCUGGAGGUUUGGACUGGGCAGAGCUCAACACAGCGUGGCAAAGUGGCUGUGGCUAGACUGCCUCUCUGGAUUCCUCGUCACUCAGCAGGGCAUCUCUGAGAGAAAUGCC [U29C A43G]: the self-cleavage came to 1.29.

With UACGUAGGUGGUUUUCCCCUGAUAGUGCCAAGGGGGCCUGGAUGUUUGGACUGGGCAGAGCUCAACACAGCGUGGCAAAGUGGCUGUGGCUAGACUGCCUCUCUGGAUUCCUCGUCACUCAGCAGGGCAUCUCUGAGAGAAAUGCC [U29C A43U], the self-cleavage came out at 1.18.

In the case of UACGUAGGUGGUUUUCCCCUGAUAGUGCCAAGGGGGCCUGGAAGUUUGGACUGGGCAGAGCUCAACACAGCGUGGCAAAGUGGCUGUGGCUAGACUGCCUCUCUGGAUUCCUCGUCACUCAGCAGGGUAUCUCUGAGAGAAAUGCC [U29C C128U], the self-cleavage came out at 1.3.

Regarding UACGUAGGUGGUUUUCCCCUGAUAGUGCCAAGGGGGCCUGGAAGUUUGGACUGGGCAGAGCUCAACACAGCGUGGCAAAGUGGCUGUGGCUAGUCUGCCUCUCUGGAUUCCUCGUCACUCAGCAGGGCAUCUCUGAGAGAAAUGCC [U29C A94U], the self-cleavage came to 0.56.

Turning to UACGUAGGUGGUUUUCCCCUGAUAGUGCCAAGGGGGCCUGGAAGUUUGGACUGGGCAGAGCUCAACACAGCGUGGCAAAGUGGCUGUGGCUAGACUGCCUCUCUGGAUUCCUCGUAACUCAGCAGGGCAUCUCUGAGAGAAAUGCC [U29C C116A], the self-cleavage came to 1.16.

For UACGUAGGUGGUUUUCCCCUGAUAGUGCCAAGGGGGCCUGGAAGUUUGGACUGGGCAGAGCUCAACACAGCGUGGCGAAGUGGCUGUGGCUAGACUGCCUCUCUGGAUUCCUCGUCACUCAGCAGGGCAUCUCUGAGAGAAAUGCC [U29C A77G], the self-cleavage was 1.92.

For the variant UACGUAGGUGGUUUUCCCCUGAUAGUGCCAAGGGGGCCUGUAAGUUUGGACUGGGCAGAGCUCAACACAGCGUGGCAAAGUGGCUGUGGCUAGACUGCCUCUCUGGAUUCCUCGUCACUCAGCAGGGCAUCUCUGAGAGAAAUGCC [U29C G41U], the self-cleavage is 0.65.

As for UACGUAGGUGGUUUUCCCCUGAUAGUGCCAAGGGGGCCUGAAAGUUUGGACUGGGCAGAGCUCAACACAGCGUGGCAAAGUGGCUGUGGCUAGACUGCCUCUCUGGAUUCCUCGUCACUCAGCAGGGCAUCUCUGAGAGAAAUGCC [U29C G41A], the self-cleavage was found to be 1.32.
